“And” between values parts separate entries of the source, which are not always exact repeats. Equal values may be shown once.
What was measured:
human IL-6 [1] = molecular target: T1, human IL-6 (Homo sapiens, UniProt P05231); assay: IL-6 neutralizing bioassay, 7TD1 cell proliferation; format: cell-based; details: relative to 68F2
T1 construct: host or cells: IL-6 added from outside to murine 7TD1 hybridoma cells
Protocol: The in vitro efficacy of clones 133E5, 133A9, 133H2, 111B1, 104C1, 129D3, 68F2, 61H7, were also determined using a cell-based neutralizing bioassay using the 7TD1 cell line, essentially as described in Van Snick et al. PNAS; 83, :9679 (1986), which is hereby incorporated by reference in its entirety. 7TD1 cells are a murine hybridoma cell line formed by fusion of the mouse myeloma cell line Sp2/0-Ag14 with spleen cells from a C57BL/6 mouse immunized with Escherichia coli lipopolysaccharides three days before fusion. The 7TD1 cell line is dependent on IL-6 for its growth and IL-6 withdrawal leads to cell death by apoptosis.
Briefly, 7TD1 cells (7.10E3) were incubated for 2-4 h in RPMI1640 medium+10% FCS before addition of IL-6 (75 pg/ml final concentration) in microtiter plates (200 ul final volume). The cells were incubated 3 days at 37C, before washing with PBS and addition of 60 ul of substrate solution (p-nitrophenyl-N-acetyl-β-D-glucosaminide (Sigma N-9376); 7.5 mM substrate in 0.05 M NaCitrate pH 5; 0.25 vol % triton X-100) for 4 h. The enzymatic reaction was stopped with 90 ul of stop solution (100 mM glycine+10 mM EDTA pH 10.4) and OD at 405 nm measured.
The VH and VL of the germlined versions of 68F2 were recloned in pUPE Heavy Chain and Light Chain expression vectors, respectively, for transient expression of full-length IgG1 antibodies. After transient expression in HEK293E cells, IgG1 antibodies were purified with protein A and quantified by measurement of OD280. Table 19 below summarizes the production levels of the germlined derivatives together with the levels of the 68F2 parental antibody. Potencies (in pM) were also measured in a 7TD1 based proliferation assay for each antibody.

human IL-6 [2] = molecular target: T1, human IL-6; assay: IL-6 neutralizing bioassay, B9 cell proliferation ([3H]thymidine); format: cell-based; details: B9 cells; relative to 68F2 average IC50
Protocol: The in vitro efficacy of clones 129D3, 68F2, 61H7, 133A9, 133H2, 133E5 and 132E7 were determined using a cell-based neutralizing bioassay using the B9 cell line, essentially as described in Helle et al. 1988, Eur. J. Immunol 18; 1535-1540. B9 cells are derived from the murine B cell hybridoma cell line B13.29, which require IL-6 for survival and proliferation and respond to very low concentrations of human IL-6. […] B9 cells were seeded in IL-6-free medium at 5000 cells/200 microl in flat-bottom wells in the presence of IL-6, with and without antibodies. Proliferation was measured by a [3H]thymidine pulse at 64-72 h.

[3] = molecular target: biotinylated (prokaryotic) IL-6 (Homo sapiens, UniProt P05231); assay: Surface plasmon resonance (Biacore), biotinylated IL-6 captured on streptavidin sensor chip; format: binding; details: purified Fab
Sequence of biotinylated (prokaryotic) IL-6 (P05231 30-212): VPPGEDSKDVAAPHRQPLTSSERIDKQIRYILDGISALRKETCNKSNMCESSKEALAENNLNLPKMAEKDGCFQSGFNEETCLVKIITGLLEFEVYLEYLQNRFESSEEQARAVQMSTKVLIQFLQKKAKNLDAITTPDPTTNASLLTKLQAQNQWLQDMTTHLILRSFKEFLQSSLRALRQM
Protocol: (§1) The binding kinetics of IL-6-specific Fabs that were able to cross-compete with the B-E8 antibody was assessed using surface plasmon resonance (Biacore). Specifically, biotinylated (prokaryotic) IL-6 was captured on a streptavidin biacore sensor chip (CM5-SA) and different concentrations of purified Fabs were injected during 3 minutes following by a 5 minute wash with buffer. From the washing phase the off-rate (kd) was determined, while from the injection phase the on-rate (ka) was calculated using the concentration and off-rate as parameters. […] The binding kinetics of antagonistic purified Fabs (Table 3) and periplasmic fractions of Fab-expressing bacteria (Table 4) were also evaluated by surface plasmon resonance (Biacore) using both bacterially and eukaryotically produced human IL-6 directly coated on a CM5 chip. The Fabs tested had off-rates between 6×10^−4 and 2×10^−5 s^−1.

[4] = molecular target: T2, eukaryotically produced human IL-6 (Homo sapiens, UniProt P05231); assay: Surface plasmon resonance (Biacore), eukaryotically produced human IL-6 coated on CM5 chip; format: binding; details: purified chain-shuffled Fabs
T2 construct: purchased Humanzyme HZ-1044; host or cells: Human Embryonic kidney cells
T2 sequence (P05231 30-212): as above
Protocol: as §1
(§2) VL chain shuffling was used to improve the affinity of the Fabs 17F10, 18C7, 18C9, 18C11, 20A4, 29B11, 16D2 and 28A6. In this method, the heavy chain of these clones (as a VHCH1 fragment) was reintroduced into the primary phagemid-light chain library (see Example 1). Affinity selections were performed to select for chain shuffled Fabs with an improved affinity for IL-6. The binding kinetics of chain shuffled Fabs were evaluated by surface plasmon resonance (Biacore) using both bacterially and eukaryotically produced human IL-6, and cynomolgus monkey IL-6 (Tables 5-7). The VH and VL amino acid sequences of exemplary IL-6-specific Fabs selected by the VL chain shuffling method are set forth in Table 14 below.
(§3) VH chain shuffling was also used to improve the affinity of the Fab 24D10. In this method, the light chain of 24D10 was reintroduced into the primary phagemid-heavy chain library (see Example 1) and selected using an off-rate assay. In this type of selection, the phage were allowed to bind to antigen on a substrate for 1.5 to 2 hours. At round 2, after 15 washes with PBS-Tween, an additional wash was performed with the presence of excess soluble IL-6. […] This procedure avoids re-binding of such phage to the coated target. […] The binding kinetics of chain shuffled Fabs and the benchmark antibodies, BE8 and GL18, were evaluated by surface plasmon resonance (Biacore) using both bacterially and eukaryotically produced human IL-6 (Tables 8 and 9). The VH and VL amino acid sequences of exemplary IL-6-specific Fabs selected by the VH chain shuffling method are set forth in Table 14 below. […]

[5] = molecular target: T3, bacterially produced human IL-6 (Homo sapiens, UniProt P05231); assay: Surface plasmon resonance (Biacore), bacterially produced human IL-6 coated on CM5 chip; format: binding; details: purified chain-shuffled Fabs
T3 construct: His
T3 sequence (P05231 30-212): as above
Protocol: as §1, §2, §3

cynomolgus monkey IL-6 = molecular target: T4, cynomolgus monkey IL-6 (Macaca fascicularis, UniProt P79341); assay: Surface plasmon resonance (Biacore), cynomolgus monkey IL-6; format: binding; details: purified chain-shuffled Fabs
T4 construct: His
T4 sequence (P79341 28-212): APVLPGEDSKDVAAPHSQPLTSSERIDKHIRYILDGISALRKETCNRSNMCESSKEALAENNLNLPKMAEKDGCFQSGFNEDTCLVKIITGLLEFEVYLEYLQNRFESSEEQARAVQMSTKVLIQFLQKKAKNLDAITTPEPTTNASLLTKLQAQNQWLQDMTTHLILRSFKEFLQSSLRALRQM
Protocol: as §2

T1 sequence (P05231 30-212): as the sequence (P05231 30-212) above

Rel. Potency (human IL-6 [2])	Molecule	Rel. Potency (human IL-6 [1]; Exp 22.06 (7TD1))	Rel. Potency (human IL-6 [1]; Exp 29.06 (7TD1))	also measured
–	129D3 (17.06) (antibody, V domains shown) VH: EVQLQESGPGLVKPSQTLSLTCTVSGGSITSRYYAWSWIRQPPGKGLEWIGVIDYDGDTYYSPSLKSRVSISWDTSKNQFSLKLSSVTPADTAVYYCARDPDVVTGFHYDYWGQGTMVTVSS VL: QSALTQPPSVSGTPGQSVTISCAGANNDIGTYAYVSWYQQLPGTAPKLMIYKVTTRASGIPDRFSGSKSGNTASLTISGLQAEDEADYYCASYRNFNNAVFGTGTKLTVL	1.02	–	–
–	127E2 (24.06) (antibody, V domains shown) VH: EVQLQESGPGLVKPSQTLSLTCTVSGGSITTRYYAWSWIRQPPGKGLEWIGVIDYDGDTYYSPSLKSRVTISVDTSKNQFSLQLSSVTAEDTAVYYCARDPDVVTGFHYDYWGQGTQVTVSS VL: QSALTQPPSVSGSPGQTVTISCAGANNDIGTYAYVSWYQQPPGTAPKLLIYKVTTRASGVPDRFSGSKSGNTASLTISGLQAEDEADYYCASYRNFNNAVFGGGTHLTVL	0.58	–	–
–	129F2 (17.06) (antibody, V domains shown) VH: EVQLQESGPGLVKPSQTLSLTCTVSGGSITSRYYAWSWIRQPPGKGLEWIGVIDYDGDTYYSPSLKSRVTISWDTSKNQFSLKLSSVTAEDTAVYYCARDPDVVTGFHYDYWGQGTMVTVSS VL: QSALTQPPSVSGTPGQTVTISCAGANNDIGTYAYVSWYQQLPGTAPKLMIYKVTTRASGIPDRFSGSKSGNTASLTISGLQSEDEADYYCASYRNFNNAVFGGGTKLTVL	1.14	–	–
–	127E2 (17.06) (antibody, V domains shown) VH: EVQLQESGPGLVKPSQTLSLTCTVSGGSITTRYYAWSWIRQPPGKGLEWIGVIDYDGDTYYSPSLKSRVTISVDTSKNQFSLQLSSVTAEDTAVYYCARDPDVVTGFHYDYWGQGTQVTVSS VL: QSALTQPPSVSGSPGQTVTISCAGANNDIGTYAYVSWYQQPPGTAPKLLIYKVTTRASGVPDRFSGSKSGNTASLTISGLQAEDEADYYCASYRNFNNAVFGGGTHLTVL	–	0.37	–
–	128G3 (17.06) (antibody, V domains shown) VH: EVQLQESGPGLVKPSQTLSLTCTVSGGSITTRYYAWSWIRQPPGKGLEWIGVIDYDGDTYYSPSLKSRTTISVDTSKNQFSLKLSSVTPEDTAVYYCARDPDVVTGFHYDYWGQGTMVTVSS VL: QSALTQPPSVSGAPGQTVTISCAGANNDIGTYAYVSWYQQLPGTAPKLLIYKVTTRASGVPDRFSGSKSGNTASLAISGLQAEDEADYYCASYRNFNNAVFGGGTHLTVL	0.60	0.52	–
0.8	68F2 (12.9) (antibody, V domains shown) VH: EVQLQESGPGLVKPSQTLSLTCTVSGGSITTRYYAWSWIRQPPGKGLEWMGVIDYDGDTYYSPSLKSRTSISWDTSKNQFSLQLSSVTPEDTAVYYCARDPDVVTGFHYDYWGQGTQVTVSS VL: QSALTQPPLVSGTPGQTVTISCAGANNDIGTYAYVSWYQQLPGTAPKLLIYKVTTRASGIPSRFSGSKSGNTASLTISGLQSEDEADYYCASYRNFNNAVFGRGTHLTVLG	–	–	–
–	68F2 (Large batch) (antibody, V domains shown) VH: EVQLQESGPGLVKPSQTLSLTCTVSGGSITTRYYAWSWIRQPPGKGLEWMGVIDYDGDTYYSPSLKSRTSISWDTSKNQFSLQLSSVTPEDTAVYYCARDPDVVTGFHYDYWGQGTQVTVSS VL: QSALTQPPLVSGTPGQTVTISCAGANNDIGTYAYVSWYQQLPGTAPKLLIYKVTTRASGIPSRFSGSKSGNTASLTISGLQSEDEADYYCASYRNFNNAVFGRGTHLTVLG	–	0.43	–
1.3	68F2 (A8.10) (antibody, V domains shown) VH: EVQLQESGPGLVKPSQTLSLTCTVSGGSITTRYYAWSWIRQPPGKGLEWMGVIDYDGDTYYSPSLKSRTSISWDTSKNQFSLQLSSVTPEDTAVYYCARDPDVVTGFHYDYWGQGTQVTVSS VL: QSALTQPPLVSGTPGQTVTISCAGANNDIGTYAYVSWYQQLPGTAPKLLIYKVTTRASGIPSRFSGSKSGNTASLTISGLQSEDEADYYCASYRNFNNAVFGRGTHLTVLG	–	–	–
–	68F2 (#12.9) (antibody, V domains shown) VH: EVQLQESGPGLVKPSQTLSLTCTVSGGSITTRYYAWSWIRQPPGKGLEWMGVIDYDGDTYYSPSLKSRTSISWDTSKNQFSLQLSSVTPEDTAVYYCARDPDVVTGFHYDYWGQGTQVTVSS VL: QSALTQPPLVSGTPGQTVTISCAGANNDIGTYAYVSWYQQLPGTAPKLLIYKVTTRASGIPSRFSGSKSGNTASLTISGLQSEDEADYYCASYRNFNNAVFGRGTHLTVLG	–	1.08	Rel. Potency (human IL-6 [1]; Exp 7.07 (7TD1)): 0.93
–	18C7: antagonistic IL-6-specific Fab clone from immunized llama (antibody, listed as Lama glama, V domains shown) VH: EVQLVESGPGLVKPSQTLSLTCTVSGGSITASFDAWSWIRQPPGKGLEWMGVIAYDGSTYYSPSLKSRTSISRDTSKNQFSLQLSSVTPEDTAVYYCARKSSWLIGYGMDYWGKGTLVTVSS VL: QAGLTQPSALSVTLGQTAKITCQGGSLGSSYAHWYQQKPGQAPVLVIYDDDSRPSGIPERFSGSSSGGRATLTISGAQAEDEGDYYCQSADSSGNAAVFGGGTHLTVLG	–	–	KA [3]: 5.7e+07 M⁻¹; Rmax [3]: 43.9 RU; ka [3]: 105000 M⁻¹ s⁻¹; kd [3]: 0.00185 s⁻¹; Koff eukIL-6 [4]: 0.001 s⁻¹ and 0.00082 s⁻¹; Koff HIS-huIL-6 [5]: 0.0011 s⁻¹; Koff HIS-cyIL-6 (cynomolgus monkey IL-6): 0.00063 s⁻¹ and 0.00069 s⁻¹
0.4	61H7 (12.8) (antibody, V domains shown) VH: EVQLVESGGGLVQPGGSLRLSCAASGFTFSSYRMYWVRQPPGKGLEWVSAISAGGGSTYYGDSVKGRFTISRDNAKNTVYLQMNSLKPEDTAVYYCANRAGWGMGDYWGQGTQVTVSS VL: QTVVTQEPSLSVSPGGTVTLTCGLSSGSVTASNYPGWFQQTPGQAPRALIYSTNDRHSGVPSRFSGSISGNKAALTITGAQPEDEADYYCALDIGDITEFGGGTHLTVLG	–	–	–
0.5	61H7 (A8.11) (antibody, V domains shown) VH: EVQLVESGGGLVQPGGSLRLSCAASGFTFSSYRMYWVRQPPGKGLEWVSAISAGGGSTYYGDSVKGRFTISRDNAKNTVYLQMNSLKPEDTAVYYCANRAGWGMGDYWGQGTQVTVSS VL: QTVVTQEPSLSVSPGGTVTLTCGLSSGSVTASNYPGWFQQTPGQAPRALIYSTNDRHSGVPSRFSGSISGNKAALTITGAQPEDEADYYCALDIGDITEFGGGTHLTVLG	–	–	–
